{"source": "paper PMC10359594", "key": {"SAMHD1 113-626 R451E": {"molecular_target": "SAMHD1 113-626 R451E (Homo sapiens, UniProt Q9Y3Z3 113-626, R451E)", "sequence (Q9Y3Z3 113-626 R451E)": "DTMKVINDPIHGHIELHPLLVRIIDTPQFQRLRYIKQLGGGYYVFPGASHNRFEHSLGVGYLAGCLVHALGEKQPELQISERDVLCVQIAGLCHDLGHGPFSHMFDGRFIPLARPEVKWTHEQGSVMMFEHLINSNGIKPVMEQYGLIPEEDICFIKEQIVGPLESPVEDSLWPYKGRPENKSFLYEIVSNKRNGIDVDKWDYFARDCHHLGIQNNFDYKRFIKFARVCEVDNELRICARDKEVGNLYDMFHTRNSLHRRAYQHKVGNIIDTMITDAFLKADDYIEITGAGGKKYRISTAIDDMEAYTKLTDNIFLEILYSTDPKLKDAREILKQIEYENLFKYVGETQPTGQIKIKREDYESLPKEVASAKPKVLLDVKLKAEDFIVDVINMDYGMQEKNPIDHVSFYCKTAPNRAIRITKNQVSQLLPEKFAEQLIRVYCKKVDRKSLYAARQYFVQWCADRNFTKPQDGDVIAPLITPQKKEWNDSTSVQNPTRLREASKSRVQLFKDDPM", "assay": "fluorescence anisotropy"}, "SAMHD1 WT [1]": {"molecular_target": "T1, SAMHD1 WT (Homo sapiens, UniProt Q9Y3Z3 1-626)", "T1 sequence (Q9Y3Z3 whole entry)": "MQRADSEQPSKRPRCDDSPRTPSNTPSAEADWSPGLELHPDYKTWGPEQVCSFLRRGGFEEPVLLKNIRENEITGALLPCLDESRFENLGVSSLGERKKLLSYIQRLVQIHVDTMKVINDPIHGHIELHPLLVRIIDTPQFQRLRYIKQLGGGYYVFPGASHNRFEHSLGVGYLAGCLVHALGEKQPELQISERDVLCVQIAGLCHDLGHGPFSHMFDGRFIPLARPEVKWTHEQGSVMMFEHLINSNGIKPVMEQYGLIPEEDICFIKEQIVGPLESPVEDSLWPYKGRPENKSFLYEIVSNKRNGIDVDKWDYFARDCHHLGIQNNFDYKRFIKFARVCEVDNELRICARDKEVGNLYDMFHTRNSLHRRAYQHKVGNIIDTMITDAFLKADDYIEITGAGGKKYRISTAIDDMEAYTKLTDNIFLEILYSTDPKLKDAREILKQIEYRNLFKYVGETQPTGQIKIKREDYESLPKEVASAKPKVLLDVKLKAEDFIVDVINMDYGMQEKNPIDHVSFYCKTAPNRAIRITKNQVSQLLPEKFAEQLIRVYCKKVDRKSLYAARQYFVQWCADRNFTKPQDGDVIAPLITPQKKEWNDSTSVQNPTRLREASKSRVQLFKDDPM", "assay": "fluorescence anisotropy"}, "SAMHD1 WT [2]": {"molecular_target": "T1, SAMHD1 WT", "assay": "fluorescence anisotropy", "remark": "listed apart in the source"}, "[3]": {"molecular_target": "T2, SAMHD1 113-626 (HD domain) (Homo sapiens, UniProt Q9Y3Z3 113-626)", "T2 sequence (Q9Y3Z3 113-626)": "as the sequence (Q9Y3Z3 113-626 R451E) above, with E339R counted along it", "assay": "crystal structure"}, "SAMHD1 C522A": {"molecular_target": "SAMHD1 C522A (Homo sapiens, UniProt Q9Y3Z3 1-626, C522A)", "sequence (Q9Y3Z3 whole entry C522A)": "as the sequence (Q9Y3Z3 whole entry) above, with C522A counted along it", "assay": "fluorescence anisotropy"}, "[4]": {"molecular_target": "T2, SAMHD1 113-626 (HD domain)", "assay": "crystal structure", "remark": "listed apart in the source"}}, "note": "Like-named read-outs stand apart in the source and are kept apart here."}
{"binder": "GACAGTGTTGAGACAGGACCAGACAGGTAG (ssDNA)", "note": "[ssDNA 30mer]", "values": [{"measurement": "binding result", "setting": "SAMHD1 113-626 R451E", "result": "no binding"}]}
{"binder": "3' overhang (mixed) DNA 1: TGGAGAATCCCGGTGCCGAGGCCGCTCAATTGGTCGTAGACAGCTCTAGCACCGCTT DNA 2: TGAGCGGCCTCGGCACCGGGATTCTCCA", "values": [{"measurement": "binding result", "setting": "SAMHD1 WT [1]", "result": "binds"}]}
{"binder": "3' fork (mixed) DNA 1: TGGAGAATCCCGGTGCCGAGGCCGCTCAATTGGTCGTAGACAGCTCTAGCACCGCTT DNA 2: AATTGTGAGCGGCCTCGGCACCGGGATTCTCCA", "values": [{"measurement": "binding result", "setting": "SAMHD1 WT [2]", "result": "binds"}]}
{"binder": "CATTG (ssDNA)", "note": "[CATTG 5mer]", "values": [{"measurement": "binding result", "setting": "[3]", "result": "binds"}]}
{"binder": "dsDNA 30mer (dsDNA) DNA 1: GACAGTGTTGAGACAGGACCAGACAGGTAG DNA 2: CTACCTGTCTGGTCCTGTCTCAACACTGTC", "values": [{"measurement": "binding result", "setting": "SAMHD1 C522A", "result": "no binding"}]}
{"binder": "CATGT (ssDNA)", "note": "[CATGT 5mer]", "values": [{"measurement": "binding result", "setting": "[4]", "result": "binds"}]}
